Measured values taken from patent US20150118700.

Columns and labels:
[1] = biological target: T1, α-fructosyl hexapeptide (α-fructosyl-valyl-histidyl-leucyl-threonyl-propyl-glutamic acid)
T1 chain: VHLTPE

[2] = biological target: T2, α-fructosyl valyl histidine
T2 chain: VH

B1: NvFX-62D/106K/110L (protein)
chain: MTTPRKETTVLIIGGGGTIGSSTALHLLRAGYTPSNITVLDTYPIPSAQSAGNDLNKIMGIDLRNKVDLQLSLEARDMWRNDALFRPFFHNTGRLDCESSAEGVEKLRRLYQKLVEAGVGLEETHEWLDSEEAILEKAPLLQREEIEGWKAIWSEEGGWLAAAKAINAIGEELQRQGVRFGFGGAGSFKRPLFADDGTTCIGVETVDGTQYHADKVVLAAGAWSPALVDLEEQCCSKAWVYAHMQLTPEEAAVYKGCPVVYHGDVGFFFEPNENGVIKVCDEFPGFTRFKQHQPYGAPAPKPVSVPRSHAKHPTDTYPDASEESIKRAVSTFLPRFKDKPLFNRALCWCTDTADSALLICEHPRWKNFILATGDSGHSFKLLPIIGKHVVELVEGRLADDLAEAWRWRPGQGDARKSIRAAPAKDLADMPGWKHDQDSESR
For B1, the Specific activity (U/mg), 1 mM αF6P [1] was 0.003 U/mg.

B2: PnFX-62D/106K/110L/113K (protein)
chain: MAPSRANTSVIVVGGGGTIGSSTALHLVRSGYTPSNVTVLDAYPIPSSQSAGNDLNKIMGVDLRNPVDLQLALEARQMWNEDELFKKFFHNTGRLDCAHGEKDIAKLKSLYQKLVDAGLDATNEWLDSEDEILKRMPLLSRDQIKGWKAIFSKDGGWLAAAKAINAVGEYLRDQGVRFGFYGAGSFKAPLLAEGVCIGVETVDGTRYYADKVVLAAGAWSPTLVELHEQCVSKAWVYGHIQLTPEEAARYKNSPVVYNGDVGFFFEPNEHGVIKVCDEFPGFTRFKMHQPFGAKAPKRISVPRSHAKHPTDTIPDASDVSIRRAIATFMPQFKNKKMFNQAMCWCTDTADAALLICEHPEWKNFVLATGDSGHSFKLLPNIGKHVVELLEGTLADDLAHAWRWRPGSGDALKSRRSAPAKDLADMPGWNHDKPRANL
B2 was tested, and the Specific activity (U/mg), 1 mM αF6P [1] was 0.125 U/mg and the “specific activity on αF6P, fold over PnFX” value [1] was “specific activity was elevated by 13.7 fold”.

B3: PnFX-62D/63H/106K/110L/113K/351S (protein)
chain: MAPSRANTSVIVVGGGGTIGSSTALHLVRSGYTPSNVTVLDAYPIPSSQSAGNDLNKIMGVDHRNPVDLQLALEARQMWNEDELFKKFFHNTGRLDCAHGEKDIAKLKSLYQKLVDAGLDATNEWLDSEDEILKRMPLLSRDQIKGWKAIFSKDGGWLAAAKAINAVGEYLRDQGVRFGFYGAGSFKAPLLAEGVCIGVETVDGTRYYADKVVLAAGAWSPTLVELHEQCVSKAWVYGHIQLTPEEAARYKNSPVVYNGDVGFFFEPNEHGVIKVCDEFPGFTRFKMHQPFGAKAPKRISVPRSHAKHPTDTIPDASDVSIRRAIATFMPQFKNKKMFNQAMCWCTDTADSALLICEHPEWKNFVLATGDSGHSFKLLPNIGKHVVELLEGTLADDLAHAWRWRPGSGDALKSRRSAPAKDLADMPGWNHDKPRANL
B3 gave a Specific activity (U/mg), 1 mM αF6P [1] of 0.667 U/mg.

B4: CFP-T7 (protein)
chain: MTSNRADTRVIVVGGGGTIGSSTALHLVRSGYAPANITVLDTFEIPSAQSAGHDLNKIMGIRLRNKVDLQMSLEARQMWKEDELFQPFFHNTGRMDCEHTPEGIEDLKKQYQALHDAGAGLEKTHAWLDNEDEILSKMPLLQRDQIQGWKAIWSQDGGWLAAAKAINAIGQFLKERGVKFGFGGAGSFKQPLFDDEGTTCIGVETADGTKYYADKVVLAAGAWSPTLVDLEDQCCSKAWVYAHIQLTPEEAAEYKGVPVVYNGEFGFFFEPDEFGVIKVCDEFPGFSRFKEHQPYGAPSPKRISVPRSHAKHPTDTYPDASEVSIKKAIATFLPRFQDKELFNRALCWCTDTADAALLMCEHPKWKNFILATGDSGHSFKILPNVGKYVVELIEGRLPEEMAYQWRWRPGGDALKSRRAAPPKDLADMPGWKHDPKL
For B4, the Specific activity (U/mg), 1 mM αFVH [2] was 16.5 U/mg, the Specific activity (U/mg), 1 mM αF6P [1] was 0 U/mg and the “ΔA at 751 nm (hydrogen peroxide generated upon oxidation of αF6P) against αF6P concentration” value [1] was “no correlation was observed between ΔA and αF6P concentration”. The αF6P oxidation activity, relative to αFVH oxidation activity designated to be 100 (relative (αFVH = 100)) [1] was 0.

B5: CFP-T7-H2-62N (protein)
chain: MTSNRADTRVIVVGGGGTIGSSTALHLVRSGYAPANITVLDTFEIPSAQSAGHDLNKIMGINLRNKVDLQMSLEARQMWKEDELFQPFFHNTGRMDCEHTPEGIEDLKKLYQALHDAGAGLEKTHAWLDNEDEILSKMPLLQRDQIQGWKAIWSQDGGWLAAAKAINAIGQFLKERGVKFGFGGAGSFKQPLFDDEGTTCIGVETADGTKYYADKVVLAAGAWSPTLVDLEDQCCSKAWVYAHIQLTPEEAAEYKGVPVVYNGEFGFFFEPDEFGVIKVCDEFPGFSRFKEHQPYGAPSPKRISVPRSHAKHPTDTYPDASEVSIKKAIATFLPRFQDKELFNRALCWCTDTADAALLMCEHPKWKNFILATGDSGHSFKILPNVGKYVVELIEGRLPEEMAYQWRWRPGGDALKSRRAAPPKDLADMPGWKHDPKL
Work on B5 yielded a αF6P oxidation activity ratio, relative to CFP-T7-H2 designated to be 100 (relative (CFP-T7-H2 = 100)) [1] of 120.

B6: CFP-T7-H4 (protein)
chain: MTSNRADTRVIVVGGGGTIGSSTALHLVRSGYAPANITVLDTFEIPSAQSAGHDLNKIMGIALRNKVDLQMSLEARQMWKEDELFQPFFHNTGRMDCEHTPEGIEDLKKYYQALHDAGAGLEKTHAWLDNEDEILSKMPLLQRDQIQGWKAIWSQDGGWLAAAKAINAIGQFLKERGVKFGFGGAGSFKQPLFDDEGTTCIGVETADGTKYYADKVVLAAGAWSPTLVDLEDQCCSKAWVYAHIQLTPEEAAEYKGVPVVYNGEFGFFFEPDEFGVIKVCDEFPGFSRFKEHQPYGAPSPKRISVPRSHAKHPTDTYPDASEVSIKKAIATFLPRFQDKELFNRALCWCTDTADAALLMCEHPKWKNFILATGDSGHSFKILPNVGKYVVELIEGRLPEEMAYQWRWRPGGDALKSRRAAPPKDLADMPGWKHDPKL
In the case of B6, the αF6P oxidation activity, relative to αFVH oxidation activity designated to be 100 (relative (αFVH = 100)) [1] is reported as 0.0341.

B7: CFP-T7-H20 (protein)
chain: MTSNRADTRVIVVGGGGTIGSSTALHLVRSGYAPANITVLDTFEIPSAQSAGHDLNKIMGIDLRNKVDLQMSLEARQMWKEDELFQPFFHNTGRMDCEHTPEGIEKLKKLYQKLHDAGAGLEKTHAWLDNEDEILSKMPLLQRDQIQGWKAIWSQDGGWLAAAKAINAIGQFLKERGVKFGFGGAGSFKQPLFDDEGTTCIGVETADGTKYYADKVVLAAGAWSPTLVDLEDQCCSKAWVYAHIQLTPEEAAEYKGVPVVYNGEFGFFFEPDEFGVIKVCDEFPGFSRFKEHQPYGAPSPKRISVPRSHAKHPTDTYPDASEVSIKKAIATFLPRFQDKELFNRALCWCTDTADAALLMCEHPKWKNFILATGDSGHSFKILPNVGKYVVELIEGRLPEEMAYQWRWRPGGDALKSRRAAPPKDLADMPGWKHDPKL
B7 showed a Specific activity (U/mg), 1 mM αFVH [2] of 4.28 U/mg, a Specific activity (U/mg), 1 mM αF6P [1] of 0.85 U/mg and a αF6P oxidation activity ratio (reference, designated to be 100) (relative (CFP-T7-H20 = 100)) [1] of 100. It also gave a αF6P oxidation activity, relative to αFVH oxidation activity designated to be 100 (relative (αFVH = 100)) [1] of 20.5.

B8: amadoriase exhibiting 95% sequence identity with ketoamine oxidase derived from Curvularia clavata (Cc95FX) (protein)
chain: MAPSRANTSVIVVGGGGTIGSSTALHLVRSGYTPSNITVLDAYPIPSSQSAGNDLNKIMGIRLRNKVDLQLSLEARQMWREDDLFKEYFHNTGRLDCAHGEEGLADLRQAYQALLDANAGLEETTEWLDSEDEILKKMPLLSRDQIKGWKAVYSQDGGWLAAAKAINAIGEYLRAQGVKFGFGGAGSFKQPLLAEGVCIGVETVDGTRYYADKVVLAAGAWSPTLVELHEQCVSKAWVYGHIQLTPEEAAEYKNSPVVYNGDVGFFFEPNEHGVIKVCDEFPGFTRFKMHQPFGAKAPKRISVPRSHAKHPTDTIPDASEKSIRKAIATFLPKFTEKELFNRHLCWCTDTADAALLICEHPEWKNFVLATGDSGHSFKLLPNIGKHVVELLEGTLADDLAHAWRWRPGSGDALKSRRSAPAKDLADMPGWKHDDVVKSKL
For B8, the αF6P oxidation activity, relative to αFVH oxidation activity designated to be 100 (relative (αFVH = 100)) [1] was 0.

B9: Cc95FX-62D/63H/106K/110L/113K/353S (protein)
chain: MAPSRANTSVIVVGGGGTIGSSTALHLVRSGYTPSNITVLDAYPIPSSQSAGNDLNKIMGIDHRNKVDLQLSLEARQMWREDDLFKEYFHNTGRLDCAHGEEGLAKLRQLYQKLLDANAGLEETTEWLDSEDEILKKMPLLSRDQIKGWKAVYSQDGGWLAAAKAINAIGEYLRAQGVKFGFGGAGSFKQPLLAEGVCIGVETVDGTRYYADKVVLAAGAWSPTLVELHEQCVSKAWVYGHIQLTPEEAAEYKNSPVVYNGDVGFFFEPNEHGVIKVCDEFPGFTRFKMHQPFGAKAPKRISVPRSHAKHPTDTIPDASEKSIRKAIATFLPKFTEKELFNRHLCWCTDTADSALLICEHPEWKNFVLATGDSGHSFKLLPNIGKHVVELLEGTLADDLAHAWRWRPGSGDALKSRRSAPAKDLADMPGWKHDDVVKSKL
B9 gave a αF6P oxidation activity, relative to αFVH oxidation activity designated to be 100 (relative (αFVH = 100)) [1] of 237.

B10: fructosyl amino acid oxidase derived from Aspergillus nidulans with serine 59 substituted with glycine (AnFX) (protein)
chain: MTPRANTKIIVVGGGGTMGSSTALHLLRAGYTPSNITVLDTCPIPSAQSAGYDLNKIMGIRLRNKPDLQLSLEALDMWKNDPLFKPFFHNVGMIDVSSTEEGIEGLRKKYQSLLDAGIGLEKTNFMLESEDEILAKAPHFTQEQIKGWKGLFCGDGGWLAAAKAINAIGQFLKEQGVKFGFGGAGTFKKPLFADAHEKTCIGVETVDGTKYYADKVVLAAGAWSSTLVDLEEQCVSKAWVFAHIQLTPAEAAAYKNTPVIYDGDYGFFFEPNENGIIKVCDEFPGFTHFKMHQPYGSPAPKPISVPRSHAKHPTDTYPHASEVTIKKAINRFLPRFNDKELFNRAMCWCTDTADANLLVCEHPRWKGFYLATGDSGHSFKLLPNIGKHVVELLEERLESVFKDAWRWRPGSGDALKSRRAAPAKDLADMPGWRNEAKM
For B10, the Specific activity (U/mg), 1 mM αF6P [1] was 0 U/mg.

B11: AnFX-61D/62H/101K/105K/109L/112K/355S (protein)
chain: MTPRANTKIIVVGGGGTMGSSTALHLLRAGYTPSNITVLDTCPIPSAQSAGYDLNKIMGIDHRNKPDLQLSLEALDMWKNDPLFKPFFHNVGMIDVSSTEKGIEKLRKLYQKLLDAGIGLEKTNFMLESEDEILAKAPHFTQEQIKGWKGLFCGDGGWLAAAKAINAIGQFLKEQGVKFGFGGAGTFKKPLFADAHEKTCIGVETVDGTKYYADKVVLAAGAWSSTLVDLEEQCVSKAWVFAHIQLTPAEAAAYKNTPVIYDGDYGFFFEPNENGIIKVCDEFPGFTHFKMHQPYGSPAPKPISVPRSHAKHPTDTYPHASEVTIKKAINRFLPRFNDKELFNRAMCWCTDTADSNLLVCEHPRWKGFYLATGDSGHSFKLLPNIGKHVVELLEERLESVFKDAWRWRPGSGDALKSRRAAPAKDLADMPGWRNEAKM
With B11 the Specific activity (U/mg), 1 mM αF6P [1] was 0.283 U/mg.

B12: AnFX-61D/105K/109L (protein)
chain: MTPRANTKIIVVGGGGTMGSSTALHLLRAGYTPSNITVLDTCPIPSAQSAGYDLNKIMGIDLRNKPDLQLSLEALDMWKNDPLFKPFFHNVGMIDVSSTEEGIEKLRKLYQSLLDAGIGLEKTNFMLESEDEILAKAPHFTQEQIKGWKGLFCGDGGWLAAAKAINAIGQFLKEQGVKFGFGGAGTFKKPLFADAHEKTCIGVETVDGTKYYADKVVLAAGAWSSTLVDLEEQCVSKAWVFAHIQLTPAEAAAYKNTPVIYDGDYGFFFEPNENGIIKVCDEFPGFTHFKMHQPYGSPAPKPISVPRSHAKHPTDTYPHASEVTIKKAINRFLPRFNDKELFNRAMCWCTDTADANLLVCEHPRWKGFYLATGDSGHSFKLLPNIGKHVVELLEERLESVFKDAWRWRPGSGDALKSRRAAPAKDLADMPGWRNEAKM
B12 showed a Specific activity (U/mg), 1 mM αF6P [1] of 0.106 U/mg.
